Results reported in PMC6547619, “Development of an anti‐BAG3 humanized antibody for treatment of pancreatic cancer” (Molecular Oncology, 2019).
Changes are numbered by the printed parent chain. Values belong to the binder of their own block, whether it stands above or below them.

How the values were obtained:
Settings in all cases: both partners purified
[1] = target: T1, human recombinant BAG3 protein (Homo sapiens, UniProt O95817); experiment: ELISA; direct ELISA; plates coated with human recombinant BAG3 (1 μg/mL in PBS); humanized antibodies in scalar dilutions, 500 to 15.6 ng/mL; HRP anti-human IgG, O.D. 450 nm
T1 construct: the cleavage released the full-length polypeptide; The ELISA methods say only 'human recombinant BAG3 protein'; For the flow cytometry it was labelled with FITC (FluoroTag FITC conjugation kit); also called rBAG3; full-length BAG3; not shown: biotinylated tag (AviTag, from the vector pAViTag-N N-His SUMO), N-terminal, cleaved; His, N-terminal, cleaved; SUMO, N-terminal, cleaved
T1 sequence (O95817 whole entry): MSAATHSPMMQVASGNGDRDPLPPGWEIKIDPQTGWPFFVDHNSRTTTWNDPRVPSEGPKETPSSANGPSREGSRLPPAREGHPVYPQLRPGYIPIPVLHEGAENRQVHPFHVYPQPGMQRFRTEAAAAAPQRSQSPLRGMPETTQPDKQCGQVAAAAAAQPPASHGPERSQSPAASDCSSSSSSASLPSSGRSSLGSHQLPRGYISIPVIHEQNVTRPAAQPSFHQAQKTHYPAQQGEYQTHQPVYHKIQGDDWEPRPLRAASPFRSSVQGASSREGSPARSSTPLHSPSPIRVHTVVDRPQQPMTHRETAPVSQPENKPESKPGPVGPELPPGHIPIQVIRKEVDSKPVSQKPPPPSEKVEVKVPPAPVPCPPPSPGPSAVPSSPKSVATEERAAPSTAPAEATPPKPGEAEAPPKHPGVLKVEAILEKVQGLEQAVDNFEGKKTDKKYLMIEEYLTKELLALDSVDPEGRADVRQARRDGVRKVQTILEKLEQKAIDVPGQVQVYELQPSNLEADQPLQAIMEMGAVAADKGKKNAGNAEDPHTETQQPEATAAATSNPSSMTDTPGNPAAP

[2] = target: T2, E. coli rBAG3 (Abcam) (Homo sapiens (assumed; species of …, UniProt O95817); experiment: SPR; Biacore 2000, 25 °C; humanized variants captured on an anti-human Fc antibody covalently coupled on a CM5 chip; rBAG3 flowed at variable concentrations
T2 construct: BAG3 (BCL2-associated athanogene 3), recombinant, made in E. coli, bought from Abcam; Antigen of the SPR experiments only; no catalogue number is printed; also called antigen; source: bought: Abcam (E. coli rBAG3)
T2 sequence (O95817 whole entry): as above

[3] = target: T2, E. coli rBAG3 (Abcam); experiment: SPR; Biacore 2000, 25 °C; AC-2 captured on an anti-mouse Fc antibody covalently coupled on a CM5 chip; rBAG3 flowed at 0.39 to 200 nM; 2-state reaction model
[4] = target: T3, murine rBAG3 (Mus musculus, UniProt Q9JLV1); experiment: immunoprecipitation; BAG3-H2L4 used to immunoprecipitate murine rBAG3; immunoblot with a rabbit polyclonal anti-BAG3
T3 construct: the cleavage released the full-length polypeptide; also called murine form of BAG3; not shown: biotinylated tag (AviTag, from the vector pAViTag-N N-His SUMO), N-terminal, cleaved; His, N-terminal, cleaved; SUMO, N-terminal, cleaved
T3 sequence (Q9JLV1 whole entry): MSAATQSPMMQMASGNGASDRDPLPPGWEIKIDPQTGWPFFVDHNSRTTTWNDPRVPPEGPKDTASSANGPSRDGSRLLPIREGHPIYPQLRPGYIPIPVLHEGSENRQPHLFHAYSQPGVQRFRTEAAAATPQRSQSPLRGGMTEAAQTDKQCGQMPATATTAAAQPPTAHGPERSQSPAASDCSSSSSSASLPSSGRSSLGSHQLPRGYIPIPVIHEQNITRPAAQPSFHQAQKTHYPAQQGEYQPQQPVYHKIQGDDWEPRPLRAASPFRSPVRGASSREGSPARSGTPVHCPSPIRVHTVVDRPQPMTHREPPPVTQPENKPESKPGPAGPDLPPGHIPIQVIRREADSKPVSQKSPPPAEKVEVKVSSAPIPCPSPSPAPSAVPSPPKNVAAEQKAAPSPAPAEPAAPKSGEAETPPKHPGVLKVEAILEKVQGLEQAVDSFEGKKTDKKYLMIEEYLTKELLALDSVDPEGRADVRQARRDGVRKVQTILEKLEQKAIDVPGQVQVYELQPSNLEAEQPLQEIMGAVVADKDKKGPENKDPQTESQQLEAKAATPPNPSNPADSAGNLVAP

binding result [1]: binds | binding result [2]: binds
B1: BAG3-H4L2 (antibody, V domains shown)
VH: EVQLVQSGAEVKKPGATVKISCKVSGFNIKDTYMYWVQQAPGKGLEWMGGVDPANGNTRYDPKFQGRVTITADTSTDTAYMELSSLRSEDTAVYYCARDGAMDYWGQGTLVTVSS
VL: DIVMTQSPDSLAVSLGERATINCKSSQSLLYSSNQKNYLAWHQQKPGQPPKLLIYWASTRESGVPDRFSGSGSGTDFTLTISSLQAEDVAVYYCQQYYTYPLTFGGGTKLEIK
notes: humanized heavy chain variant H4: CDRs of AC-2 (humanized light chain variant L2: CDRs of AC-2 (IgG1, kappa)); source: CHO, transiently transfected, purified from supernatant (Protein A FPLC), Evitria AG

Kd [3]: 14.4 nM
B2: murine anti-BAG3 antibody AC-2 (antibody, V domains shown)
VH: EVQLQQSGAELVKPGASVKLSCTASGFNIKDTYMYWVKQRPEQGLEWIGGVDPANGNTRYDPKFQGKATLTADTSSSTAYLQLSSLTSEDTAVYYCGRDGAMDYWGQGTSVTVSS
VL: DIVMSQSPSSLAVSVGEKVTMSCKSSQSLLYSSNQKNYLAWHQQKPGQSPKLLIYWASTRESGVPDRFTGSGSGTDFTLTISSVKAEDLAIYYCQQYYTYPLTFGAGTKLELK
notes: murine heavy chain; murine light chain; also called mAb AC-2; anti-BAG3 clone AC-2; source: mouse hybridoma clone AC-2 (supernatant in the peptide ELISA)

binding result [4]: binds | binding result [1]: binds | binding result [2]: binds
B3: BAG3-H2L4 (antibody, V domains shown)
VH: QVQLVQSGAEVKKPGASVKVSCKASGFNIKDTYMYWVRQAPGQGLEWMGGVDPANGNTRYDPKFQGRVTLTRDTSTSTVYMELSSLRSEDTAVYYCGRDGAMDYWGQGTLVTVSS
VL: B2 VL with S5T, S9D, V15L, K18R, V19A, S49P, T69S, V84L, K85Q, L112I
notes: humanized heavy chain variant H2: CDRs of AC-2 (humanized light chain variant L4: CDRs of AC-2 (IgG1, kappa)); also called humanized anti-BAG3 antibody; humanized BAG3-H2L4 antibody; source: CHO, transiently transfected, purified from supernatant (Protein A FPLC), Evitria AG
